Two molecules from paper doi:10.1101/2022.02.27.481910 (bioRxiv, 2022) can be followed below.

One may read the stoichiometry N as a count of units in the complex or per binding partner.

One data set has as its target KaiC-AA (S431A, T432A) (UniProt Q79PF4). Description: cryo-EM structure.
The data set “cryo-EM structure” deals with the molecule itself. Description: cryo-EM structure.

“KaiC-AA (S431A, T432A) (from UniProt Q79PF4 14-484) (enzyme)” returned a stoichiometry N with KaiC-AA (S431A, T432A) of 6.

B1: KaiC-EE (S431E, T432E) (enzyme)
chain: EHQAIAKMRTMIEGFDDISHGGLPIGRSTLVSGTSGTGKTLFSIQFLYNGIIEFDEPGVFVTFEETPQDIIKNARSFGWDLAKLVDEGKLFILDASPDPEGQEVVGGFDLSALIERINYAIQKYRARRVSIDSVTSVFQQYDASSVVRRELFRLVARLKQIGATTVMTTERIEEYGPIARYGVEEFVSDNVVILRNVLEGERRRRTLEILKLRGTSHMKGEYPFTITDHGINIFPLGAMRLTQRSSNVRVSSGVVRLDEMCGGGFFKDSIILATGATGTGKTLLVSRFVENACANKERAILFAYEESRAQLLRNAYSWGMDFEEMERQNLLKIVCAYPESAGLEDHLQIIKSEINDFKPARIAIDSLSALARGVSNNAFRQFVIGVTGYAKQEEITGLFTNTSDQFMGAHSITDSHIEEITDTIILLQYVEIRGEMSRAINVFKMRGSWHDKAIREFMISDKGPDIKDSFRNFERIISGSPTRI
B1: in “cryo-EM structure”, the “stoichiometry N” value was found to be 6.
